In patent publication US20090175881A1 (SCHERING, published 2009):
Values joined by “and” are separate entries in the source; they are usually repeats but may differ in a detail not shown here. Equal values may be shown once.

T1: FLAG-huIL-17A (human, UniProt Q16552 24-155)
T1 construct: also called FLAG-huL-17A; FLAG-IL-17A
T1 sequence: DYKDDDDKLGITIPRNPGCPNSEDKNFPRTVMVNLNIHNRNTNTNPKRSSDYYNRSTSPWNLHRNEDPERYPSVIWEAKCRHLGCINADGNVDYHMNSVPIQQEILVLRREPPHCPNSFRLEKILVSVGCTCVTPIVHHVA

T2: cynomolgus monkey IL-17A (cynomolgus monkey, UniProt A0A2K5TTB0 24-155)
T2 construct: also called cyno IL-17A; cyno IL-17
T2 sequence: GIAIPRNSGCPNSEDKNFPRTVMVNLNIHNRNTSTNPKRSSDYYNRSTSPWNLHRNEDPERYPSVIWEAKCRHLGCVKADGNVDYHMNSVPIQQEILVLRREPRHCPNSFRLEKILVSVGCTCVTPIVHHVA

T3: mouse IL-17A (mouse, UniProt Q62386 26-158, limits assumed)
T3 construct: also called mu IL-17A; mu IL-17
T3 sequence (looked up): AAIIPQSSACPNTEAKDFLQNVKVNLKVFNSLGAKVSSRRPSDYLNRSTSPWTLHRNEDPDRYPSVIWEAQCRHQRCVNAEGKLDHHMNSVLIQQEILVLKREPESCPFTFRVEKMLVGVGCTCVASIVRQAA

T4: rhIL-17A (human, UniProt Q16552 24-155)
T4 sequence: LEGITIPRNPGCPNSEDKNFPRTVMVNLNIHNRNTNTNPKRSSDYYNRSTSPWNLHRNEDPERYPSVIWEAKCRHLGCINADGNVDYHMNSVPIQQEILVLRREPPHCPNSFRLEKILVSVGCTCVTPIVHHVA

T5: native human IL-17A (human, UniProt Q16552 24-155)
T5 sequence: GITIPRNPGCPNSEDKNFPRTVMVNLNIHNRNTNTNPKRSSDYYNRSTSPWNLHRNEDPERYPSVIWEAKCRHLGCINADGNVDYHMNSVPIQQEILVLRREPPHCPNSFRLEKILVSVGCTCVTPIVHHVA

T6: R&D Systems human IL-17A (human, UniProt Q16552 20-155)
T6 construct: Bought from R&D Systems, made in E. coli; also called R&D IL-17A; E. coli-derived human IL-17 (IL-17A)
T6 sequence: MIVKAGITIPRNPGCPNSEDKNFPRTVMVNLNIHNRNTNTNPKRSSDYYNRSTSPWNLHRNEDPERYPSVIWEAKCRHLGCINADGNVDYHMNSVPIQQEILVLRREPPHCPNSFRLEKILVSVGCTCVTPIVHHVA

T7: FLAG-tagged mouse IL-17A (mouse, UniProt Q62386 26-158, limits assumed)
T7 construct: also called mIL-17A; intact mIL-17A
T7 sequence: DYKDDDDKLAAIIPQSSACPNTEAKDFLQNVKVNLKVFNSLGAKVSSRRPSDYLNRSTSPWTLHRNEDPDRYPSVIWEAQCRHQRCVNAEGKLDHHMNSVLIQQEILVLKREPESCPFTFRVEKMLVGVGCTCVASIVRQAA

T8: FLAG-tagged human IL-17F (human, UniProt Q96PD4 31-163, limits assumed)
T8 construct: also called intact IL-17F
T8 sequence: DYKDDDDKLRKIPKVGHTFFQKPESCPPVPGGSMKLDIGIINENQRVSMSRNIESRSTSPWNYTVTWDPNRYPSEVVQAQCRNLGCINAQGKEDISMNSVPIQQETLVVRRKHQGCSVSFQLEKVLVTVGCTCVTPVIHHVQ


Legend:
FLAG-huIL-17A [1] = target: T1, FLAG-huIL-17A; experiment: ECL (Origen), antibody titrated against biotinylated antigen; area under the curve
Text: (§1) Origen electrochemiluminescence technology, developed by IGEN, Inc. (Gaithersburg, Md., USA), and was employed to measure the binding of rat anti-human IL-17A antibodies (and one chimeric antibody) to FLAG-huL-17A. […] Electrochemiluminescence technology uses a stable ruthenium metal chelate (Ori-TAG) which, in the presence of tripropylamine (TPA), generates electrochemiluminescence upon voltage application. Paramagnetic beads, microns in diameter, act as the solid phase and facilitate rapid assay kinetics. The bead/complex is channeled through a flow cell and captured at an electrode by magnetic application. Voltage is applied and resulting electrochemiluminescence is measured.
(§2) ECL assays were performed as follows. Three-fold serial dilutions of anti-human IL-17A mAbs in 50 μl of the assay buffer were made in a 96-well microtiter plate to give 1-3 μg/ml final concentration in the first well. […] Finally 50 μl of Origen Streptavidin-Dynabeads at 0.1 mg/ml was added to each well. […] GraphPad Prism software (GraphPad Software, San Diego, Calif., USA) was used to plot the data and calculate area under the curve, which is a rough measure of binding.

FLAG-huIL-17A [2] = target: T1, FLAG-huIL-17A; experiment: KinExA, solution equilibrium
Experimental: (§3) The equilibrium dissociation constants (Kd) for anti human IL-17A antibodies were determined using the KinExA 3000 instrument (Sapidyne Instruments Inc., Boise, Id., USA). KinExA uses the principle of the Kinetic Exclusion Assay method based on measuring the concentration of uncomplexed antibody in a mixture of antibody, antigen and antibody-antigen complex. […] The concentration of free antibody is measured by exposing the mixture to a solid-phase immobilized antigen for a very brief period of time. l practice, this is accomplished by flowing the solution phase antigen-antibody mixture past antigen-coated particles trapped in a flow cell. Data generated by the instrument are analyzed using custom software.
(§4) IL-17A was derived from either human (“hu”), cynomolgus monkey (“cyno”), or mouse (“mu”). IL-17A from the same species was used in both the immobilized and solution phases for each KinExA determination. Poly(methyl-methacrylate) (PMMA) particles (98 micron) were coated with human, cyno or mouse IL-17A according to Sapidyne “Protocol for coating PMMA particles with biotinylated ligands having short or nonexistent linker arms.” All experimental procedures were done according to the KinExA 3000 manual. All runs were done in duplicate.
(§5) Two-fold serial dilutions of the antigen were prepared and mixed with the antibody at constant concentration. The mixture was incubated for 2 hours at 25° C. to equilibrate.

cynomolgus monkey IL-17A [3] = target: T2, cynomolgus monkey IL-17A; experiment: KinExA, solution equilibrium
Experimental: as §3, §4, §5

mouse IL-17A [4] = target: T3, mouse IL-17A; experiment: KinExA, solution equilibrium
Experimental: as §3, §4, §5

rhIL-17A [5] = target: T4, rhIL-17A; experiment: cell-based or functional assay
cynomolgus monkey IL-17A [6] = target: T2, cynomolgus monkey IL-17A; experiment: cell-based or functional assay
rhIL-17A [7] = target: T4, rhIL-17A; experiment: cell-based or functional assay; remark: listed apart in the source
cynomolgus monkey IL-17A [8] = target: T2, cynomolgus monkey IL-17A; experiment: cell-based or functional assay; remark: listed apart in the source
native human IL-17A [9] = target: T5, native human IL-17A; experiment: cell-based or functional assay
rhIL-17A [10] = target: T4, rhIL-17A; experiment: cell-based or functional assay; remark: listed apart in the source
cynomolgus monkey IL-17A [11] = target: T2, cynomolgus monkey IL-17A; experiment: cell-based or functional assay; remark: listed apart in the source
rhIL-17A [12] = target: T4, rhIL-17A; experiment: cell-based or functional assay; remark: listed apart in the source
rhIL-17A [13] = target: T4, rhIL-17A; experiment: cell-based or functional assay; remark: listed apart in the source
cynomolgus monkey IL-17A [14] = target: T2, cynomolgus monkey IL-17A; experiment: cell-based or functional assay; remark: listed apart in the source
native human IL-17A [15] = target: T5, native human IL-17A; experiment: cell-based or functional assay; remark: listed apart in the source
cynomolgus monkey IL-17A [16] = target: T2, cynomolgus monkey IL-17A; experiment: ECL (Origen); area under the curve
Text: as §1, §2

mouse IL-17A [17] = target: T3, mouse IL-17A; experiment: ECL (Origen); area under the curve
Text: as §1, §2

rhIL-17A [18] = target: T4, rhIL-17A; experiment: KinExA, solution equilibrium
Experimental: as §3, §4, §5

rhIL-17A [19] = target: T4, rhIL-17A; experiment: indirect ELISA, rhIL-17A coated on plate
Experimental: Binding of anti-human-IL-17A monoclonal antibodies to rhIL-17A is assessed using an indirect enzyme-linked immunosorbent assay (ELISA). Briefly, a fixed concentration of rhIL-17A is bound directly to the wells of a microtiter plate. The monoclonal anti-IL-17A to be assayed is then is added to the rhIL-17A coated plate, where the antibody is captured and quantitated.
A 96-well U-bottom MaxiSorp plate is coated with 50 μl/well of rhIL-17A (0.5 μg/ml) in carbonate coating buffer (the “assay plate”). Carbonate coating buffer is 2.9 g/L NaHFCO₃, 1.6 g/L Na₂CO₃, pH 9.4. Plates are incubated covered at 4° C. overnight. Monoclonal antibodies to be screened are serially diluted in duplicate across the rows of a V-bottom plate such that the final volume is 60 μl/well (the “serial dilution plate”). The assay plate is washed three times with PBS-Tween in a plate washer (SkanWasher, Molecular Devices, Sunnyvale, Calif., USA) and blotted dry. PBS-Tween is obtained by adding 0.5 ml/L Tween 20 to 1×PBS. Fifty μl from each well of the serial dilution plate is transferred to the assay plate and incubated at 25° C. for one hour. Secondary antibodies are diluted 1/2000 in diluent (PBS-BSA-Tween, which is PBS-Tween with 1 g/L BSA). The secondary antibody for rat monoclonal antibodies is goat anti-rat IgG (H+L)—HRP (Jackson ImmunoResearch Laboratories, Inc., West Grove, Pa., USA). The secondary antibody for chimeric and humanized monoclonal antibodies is F(ab′)₂ goat anti-human IgG Fcγ—HRP (Jackson ImmunoResearch Laboratories, Inc.). The assay plate is washed as before. Diluted secondary antibodies (100 μl/well) are added to the appropriate wells in the assay plate, and the plate is incubated at 25° C. for 45 minutes. The assay plate is washed as before.

rhIL-17A [20] = target: T4, rhIL-17A; experiment: sandwich ELISA, IL-17A captured on rat 12E6, antibody titrated
Experimental: (§6) Binding of anti-human-IL-17A monoclonal antibodies to rhIL-17A is assessed using an ELISA as follows. Briefly, a capture antibody is bound to the wells of a microtiter plate, after which a fixed concentration of rhIL-17A is added. The monoclonal anti-IL-17A to be assayed is then titrated versus the bound rhIL-17A on the plate to determine the concentration of antibody needed to achieve half-maximal binding. A more detailed protocol follows.
(§7) A 96-well microtiter plate is coated with 100 μl/well of capture antibody (rat anti-hIL-17A 12E6, 0.5 μg/ml) in carbonate coating buffer pH 9.5 (the “assay plate”). Plates are incubated covered at 4° C. for 24 to 48 hours. The assay plate is washed three times in a plate washer (SkanWasher, Molecular Devices, Sunnyvale, Calif., USA) and blotted dry. The plate is then blocked with 200 μl/well of ELISA assay buffer (20 mM Tris-HCl, 0.15 M NaCl, pH7.4, 0.5% BSA, 0.05% Tween-20, SM EDTA) for one hour at 25° C. on an orbital shaker. The plate is washed, and 100 μl/well of either adenovirus-derived rhIL-17A or E. coli-derived human IL-17 (IL-17A) (R&D Systems, Minneapolis, Minn., USA) (0.1 g/ml) is added in ELISA assay buffer and incubated for 2 hours at 25° C. on an orbital shaker. […] Plates are incubated for 1.5 hours at 25° C. on an orbital shaker. Plates are washed and 100 μl/well secondary antibody (F(ab′)₂ goat anti-human kappa light chain—HRP, 1:20,000 dilution, BioSource, Carlsbad, Calif., USA) is added, except for assay blank wells. Plates are washed twice (i.e. two cycles of 3 washes per cycle) with plate rotation between cycles. TMB substrate (Kirkegaard & Perry Laboratories, Gaithersburg, Md., USA) is added at 100 μl/well and incubated 3-5 minutes on an orbital shaker. Stop solution is added (100 μl/well) and the plate is read for absorbance at 450-570 um on a plate reader (Versamax, Molecular Devices, Sunnyvale, Calif., USA).

R&D Systems human IL-17A = target: T6, R&D Systems human IL-17A; experiment: as above
Experimental: as §6, §7

FLAG-tagged mouse IL-17A = target: T7, FLAG-tagged mouse IL-17A; experiment: observation on which Example 19 is based
mouse IL-17A [21] = target: T3, mouse IL-17A; experiment: ECL (Origen)
Experimental: as §2

FLAG-tagged human IL-17F = target: T8, FLAG-tagged human IL-17F; experiment: AlphaScreen
Experimental: Each of these three proteins was linked to an N-terminal FLAG® peptide tag (see residues 1 to 9 of SEQ ID NO.: 42). […] Donor and acceptor beads were mixed, illuminated at 680 nm, and emission was measured at 520-620 nm.

Row | Binder | Area Under Peak (FLAG-huIL-17A [1]) | Kd (FLAG-huIL-17A [2]) | Kd (cynomolgus monkey IL-17A [3]) | Kd (mouse IL-17A [4]) | IC50, inhibition of IL-6 production in NHDF cells, rhIL-17A (rhIL-17A [5]) | IC50, inhibition of IL-6 production in NHDF cells, cyno IL-17A (cynomolgus monkey IL-17A [6]) | IC50, synoviocyte IL-8 production, rhIL-17A (30 ng/ml) (rhIL-17A [7]) | IC50, synoviocyte IL-8 production, NHP IL-17A (30 ng/ml) (cynomolgus monkey IL-17A [8]) | IC50, synoviocyte IL-8 production, Native huIL-17A (10 ng/ml) (native human IL-17A [9]) | IC50, Ba/F3 hIL-17Rc-mGCSFR proliferation assay, IL-17A at 276 pM (rhIL-17A [10]) | IC50, Ba/F3 hIL-17Rc-mGCSFR proliferation assay, IL-17A at 100 pM (cynomolgus monkey IL-17A [11]) | IC50, foreskin fibroblast (HS68) assay, rhIL-17A-induced IL-6 (rhIL-17A [12]) | IC50, synoviocyte IL-6 production, rhIL-17A (30 ng/ml) (rhIL-17A [13]) | IC50, synoviocyte IL-6 production, NHP IL-17A (30 ng/ml) (cynomolgus monkey IL-17A [14]) | IC50, synoviocyte IL-6 production, Native huIL-17A (10 ng/ml) (native human IL-17A [15]) | Area Under Peak (cynomolgus monkey IL-17A [16]) | Kd (rhIL-17A [18]) | EC50 (rhIL-17A [20]) | EC50 (R&D Systems human IL-17A) | IC50, Ba/F3 hIL-17Rc-mGCSFR proliferation assay, IL-17A at 100 pM (rhIL-17A [10]) | other results
1 | rat 1D10 (antibody, V domains shown, Parental rat monoclonal antibody; also called ID10; anti-IL-17A antibody 1D10) VH: QVQLKESGPGLVQPSQTLSLTCTVSGFSLTNYYVHWVRQPPGKGLEWMGGVWNDGDTSYNSVLRSRLSITRDTSKSQVLLKMSSLQTEDTATYYCAREGREGFVGYYVMDAWGPGASVTVSS VL: DIQMTQSPSFLSASVGERVTLSCKASQNINKYLDWFQQKLGEAPKLLIYNADNLHTGIPSRFSGSGSFSDFILTISSLQPEDDATYFCLQRESWPYTFGAGTKLELKR | 477000 | 0.0017 nM | 0.0098 nM | 0.0103 nM | 1 nM | 0.4 nM | 0.059 µg/mL | 0.038 µg/mL | 0.04 µg/mL | 223 pM | 19 pM | 0.065 nM | 0.105 µg/mL | 0.065 µg/mL | 0.025 µg/mL | 136000 |  |  |  |  | Area Under Peak (mouse IL-17A [17]): 252000
2 | humanized 16C10 wt (antibody, human IgG1, kappa, V domains shown, Humanized antibody with the parental rat CDRs; Human IgG1/kappa; also called hu 16C10 wt; hu16C10 (wt)) VH: QVQLQESGPGLVKPSETLSLTCTVSGFSLPSHSVSWIRQPPGKGLEWIGIIWNNGGTDYNSAFKSRVTISVDTSKNQFSLKLSSVTAADTAVYYCARNMYITDYYYENYFMDAWGQGTLVTVSS VL: DIVMTQSPLSLPVTPGEPASISCKSSQSLLFSENQKNYLAWYLQKPGQSPQLLIYWTSTRQSGVPDRFSGSGSGTDFTLKISRVEAEDVGVYYCQQSYYTPYTFGQGTKVEIKR |  |  |  |  |  |  | 0.042 µg/mL |  |  |  |  |  | 0.08 µg/mL |  |  |  | 0.0088 nM | 0.066 nM | 0.13 nM |  | EC50 (rhIL-17A [19]): 0.212 nM
3 | humanized 16C10 (VH N54Q/M96A) (antibody, human IgG1, kappa, V domains shown, Human IgG1/kappa; also called hu 16C10; hu16C10) VH: QVQLQESGPGLVKPSETLSLTCTVSGFSLPSHSVSWIRQPPGKGLEWIGIIWNQGGTDYNSAFKSRVTISVDTSKNQFSLKLSSVTAADTAVYYCARNAYITDYYYENYFMDAWGQGTLVTVSS VL: DIVMTQSPLSLPVTPGEPASISCKSSQSLLFSENQKNYLAWYLQKPGQSPQLLIYWTSTRQSGVPDRFSGSGSGTDFTLKISRVEAEDVGVYYCQQSYYTPYTFGQGTKVEIKR |  |  | 0.0163 nM |  |  |  | 0.038 µg/mL | 0.038 µg/mL | 0.05 µg/mL | 149 pM | 17 pM |  | 0.07 µg/mL | 0.07 µg/mL | 0.025 µg/mL |  | 0.0039 nM | 0.092 nM | 0.136 nM | 15 pM and 13 pM and 27 pM | 
4 | hu 16C10 VH N54Q/M96A/M100hF (antibody, human IgG1, kappa, V domains shown, Human IgG1/kappa; also called hu 16C10 VH 54Q/M96A/M100hF; hu16C10 (N54Q/M96A/M100hF)) VH: QVQLQESGPGLVKPSETLSLTCTVSGFSLPSHSVSWIRQPPGKGLEWIGIIWNQGGTDYNSAFKSRVTISVDTSKNQFSLKLSSVTAADTAVYYCARNAYITDYYYENYFFDAWGQGTLVTVSS VL: DIVMTQSPLSLPVTPGEPASISCKSSQSLLFSENQKNYLAWYLQKPGQSPQLLIYWTSTRQSGVPDRFSGSGSGTDFTLKISRVEAEDVGVYYCQQSYYTPYTFGQGTKVEIKR |  |  |  |  |  |  | 0.04 µg/mL |  |  |  |  |  | 0.07 µg/mL |  |  |  | 0.01 nM | 0.08 nM | 0.118 nM | 11 pM | 
5 | rat 16C10 (antibody, rat IgG1, V domains shown, also called 16C10C; antibody 16C10) VH: QVELRESGPGLVQPSQTLSLTCTVSGFSLPSHSVSWIRQPPGKGLEWMGIIWNNGGTDYNSAFKSRLTISRDTSKSQVFLKMNSLQTEDTAMYFCARNMYITDYYYENYFMDAWGQGASVTVSS VL: DIVMTQSPSSLAVSIGETVTLNCKSSQSLLFSENQKNYLAWYQHKSGQSPKLLVYWTSTRQSGVPDRFMGSGSGTDFTLTISSVQAEDLAIYYCQQSYYTPYTFGAGTKLELKR | 286000 | 0.0036 nM | 0.0017 nM |  | 0.5 nM | 0.2 nM | 0.038 µg/mL | 0.033 µg/mL |  | 162 pM | 27 pM | 0.067 nM | 0.063 µg/mL | 0.06 µg/mL |  | 152000 | 0.006 nM |  |  | 20 pM | binding result (FLAG-tagged mouse IL-17A): no binding; binding result (mouse IL-17A [21]): no binding (tested: 1-3 µg/ml antibody in the first well); binding result (FLAG-tagged human IL-17F): no binding; EC50 (rhIL-17A [19]): 0.274 nM
6 | rat 23E12 (antibody, V domains shown, Parental rat monoclonal antibody (hybridoma PTA-7740)) VH: QVQLKESGPGLVQPSQTLSLTCTVFGFSLTNNGVTWVRQPPGKGLEWIAEVSSGGSTDYNSALKSRLSISRDTSKSQVFLRMNSLQTEDTAIYFCARQEVFTGLLDYWGQGVMVTVSS VL: DIQMTQSPASLSASLGETVTIQCQASEDIYSGLAWYHQKPGKSPQLLILGASRLHDGVPSRFSGSGSGIEYSLKINNMQTEDEGIYFCQQGLKYPPTFGGGTKLELKR | 285000 | 0.0028 nM | 0.028 nM | 7 nM | 1 nM | 0.3 nM |  |  |  |  |  | 0.126 nM |  |  |  | 111000 |  |  |  |  | Area Under Peak (mouse IL-17A [17]): 143000
